Results on 4 proteins are retold here after US20170281716.

Series [1] deals with T1, DEVD-modified IL-36γ, full length.
T1 sequence (Q9NZH8 whole entry, species assumed, looked up): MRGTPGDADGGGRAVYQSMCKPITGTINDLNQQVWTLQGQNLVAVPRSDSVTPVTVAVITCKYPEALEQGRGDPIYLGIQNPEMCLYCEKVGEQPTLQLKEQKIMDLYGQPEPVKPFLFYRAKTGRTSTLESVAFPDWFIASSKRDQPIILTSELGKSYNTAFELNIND

Series [2] has as its target T2, DEVD-modified IL-36β, full length unprocessed.
T2 sequence (Q9NZH7 whole entry, species assumed, looked up): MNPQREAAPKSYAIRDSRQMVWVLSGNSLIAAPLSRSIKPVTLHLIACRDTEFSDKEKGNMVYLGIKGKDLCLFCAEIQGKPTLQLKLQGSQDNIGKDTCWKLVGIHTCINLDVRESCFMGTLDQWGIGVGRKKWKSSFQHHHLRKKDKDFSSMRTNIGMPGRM

For another series, the target named is T3, endogenous IL-36γ.
T3 chain: T1 sequence (Q9NZH8 whole entry, species assumed, looked up)

In series [3] the target is T4, Full-length poly-histidine-tagged human IL-36β.
T4 chain: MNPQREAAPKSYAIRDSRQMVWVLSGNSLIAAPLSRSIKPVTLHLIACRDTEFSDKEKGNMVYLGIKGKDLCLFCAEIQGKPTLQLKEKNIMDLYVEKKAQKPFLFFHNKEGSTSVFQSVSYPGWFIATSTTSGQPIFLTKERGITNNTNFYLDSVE

The target of the next series is T5, biotin-FLF-CMK.
T5 chain: FLF

B1: Recombinant poly-histidine-tagged caspase-3 (protein)
chain: SGISLDNSYKMDYPEMGLCIIINNKNFHKSTGMTSRSGTDVDAANLRETFRNLKYEVRNKNDLTREEIVELMRDVSKEDHSKRSSFVCVLLSHGEEGIIFGTNGPVDLKKITNFFRGDRCRSLTGKPKLFIIQACRGTELDCGIETDSGVDDDMACHKIPVEADFLYAYSTAPGYYSWRNSKDGSWFIQSLCAMLKQYADKLEFMHILTRVNRKVATEFESFSFDATFHAKKQIPCIVSMLTKELYFYH
Consider B1, for which the “proteolytic processing, immunoblot” value in series [1] was “DEVD-modified IL-36β (IL-36b^DEVD) and DEVD-modified IL-36γ (IL-36g^DEVD) was readily processed by caspase-3”; in series [2], “DEVD-modified IL-36β (IL-36b^DEVD) and DEVD-modified IL-36γ (IL-36g^DEVD) was readily processed by caspase-3”.

B2: Purified Neutrophil-derived Elastase (protein)
chain: IVGGRRARPHAWPFMVSLQLRGGHFCGATLIAPNFVMSAAHCVANVNVRAVRVVLGAHNLSRREPTRQVFAVQRIFENGYDPVNLLNDIVILQLNGSATINANVQVAQLPAQGRRLGNGVQCLAMGWGLLGRNRGIASVLQELNVTVVTSLCRRSNVCTLVRGRQAGVCFGDSGSPLVCNGLIHGIASFVRGGCASGLYPDAFAPVAQFVNWIDSIIQ
Turning to B2, in the series with endogenous IL-36γ, the “proteolysis of endogenous IL-36γ from keratinocyte extracts and supernatants, immunoblot” value is listed as “IL-36γ incubated with elastase resulted in robust IL-36γ proteolysis both intracellularly as well as extracellularly”; the “proteolysis of endogenous IL-36γ in psoriatic skin homogenates, immunoblot” value is listed as “incubating these psoriatic homogenates with neutrophil elastase resulted in IL-36γ proteolysis”.

B3: purified cathepsin K (protein)
chain: APDSVDYRKKGYVTPVKNQGQCGSCWAFSSVGALEGQLKKKTGKLLNLSPQNLVDCVSENDGCGGGYMTNAFQYVQKNRGIDSEDAYPYVGQEESCMYNPTGKAAKCRGYREIPEGNEKALKRAVARVGPVSVAIDASLTSFQFYSKGVYYDESCNSDNLNHAVLAVGYGIQKGNKHWIIKNSWGENWGNKGYILMARNKNNACGIANLASFPKM
With B3, the “cleavage and activation of IL-36β” value in series [3] is “cathepsin K, a protease predominantly expressed in osteoclasts, can cleave and activate IL-36β (beta) at the same residue as Cathepsin G (NPQR5 EAAP)”.

B4: Purified Neutrophil-derived Cathepsin G (protein)
chain: IIGGRESRPHSRPYMAYLQIQSPAGQSRCGGFLVREDFVLTAAHCWGSNINVTLGAHNIQRRENTQQHITARRAIRHPQYNQRTIQNDIMLLQLSRRVRRNRNVNPVALPRAQEGLRPGTLCTVAGWGRVSMRRGTDTLREVQLRVQRDRQCLRIFGSYDPRRQICVGDRRERKAAFKGDSGGPLLCNNVAHGIVSYGKSSGVPPEVFTRVSSFLPWIRTTMRS
For B4, the “depletion of cathepsin G activity from degranulates with streptavidin agarose (FLF-sBzl hydrolysis; IL-36β bioassay)” value with biotin-FLF-CMK is recorded as “selective depletion of cathepsin G activity from PMA-treated neutrophil degranulates using biotin-FLF-CMK largely eliminated activation of IL-36b but not of IL-36g”.
